B1: SEC22B (parent)
chain: FPKKLAFAYLEDLHSEFDEQHGKK
B2: SOAT1 (parent)
chain: KSAAMLAVFAVSAVVHEYALAVCL

Variants of: B1
Assay: protein stability index of a GFP-peptide fusion (GPS, HEK-293T) (PSI 1-6); higher = more stable
Conditions: c terminus: a fixed tail appended
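Also: lentivirally expressed fusions sorted by FACS into six bins by GFP to DsRed ratio, PSI derived from sequencing read proportions per bin multiplied by bin number.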

Protein stability index: each site, then its substitutions
F17: G 2.4, T 2.99, I 2.6, V 2.67, H 2.66, C 2.87, R 2.85, A 2.68, K 2.98, Y 2.91
E16: H 2.08, L 2.29, S 2.8, P 2.25, I 2.07, D 2.34, C 2, Q 2.55, Y 1.56, K 2.87, R 2.39, G 2.5, T 2.36, W 1.94, V 1.87
E19: W 2.12, N 2.86, G 2.36, P 2.79, H 2.05, S 2.33, F 2.51, V 2.32, Y 2.39, I 2.37, T 2.42
A8: K 2.91, F 2.26, I 2.4, V 2.31, D 3.39, P 2.84, S 3.06, Y 1.79, R 2.34, G 3.04
H14: P 2.2, T 2.89, Q 2.85, I 1.68, L 2.31, A 2.47, D 2.53, V 1.98, G 2.57, Y 2.28, K 2.96, W 2.06, E 2.13, F 1.91, M 2.23, C 2.07
G22: W 2.23, V 2.12, E 2.56, D 2.15, K 2.23, H 3, T 2.43, A 2.54, M 2.62, I 2.25, N 2.71, C 2.35, L 2.34, P 2.48, F 1.97
F7: A 3.63, D 3.98, P 3.39, S 3.8, T 3.33, W 1.95, Y 2.5, R 3.28, I 3.24, H 3.42, C 3.47, K 3.8, M 2.53, E 4, Q 4.16
K3: C 1.69, R 2.42, Y 1.74, P 3.08, A 1.91, D 2.25, H 1.17, S 2.01, N 2.23, I 2.17
L5: C 1.66, D 3.26, H 1.95, W 1.59, Q 3.18, R 2.65, M 1.84, V 2.9, Y 2.52, K 2.85, E 3.56, S 2.64, T 3.02, P 1.77
L10: F 2.31, R 2.75, C 2.21, Y 2.84, P 2.92, A 2.47, G 2.78, I 2.34, S 3.15, V 2.11, Q 3.39, M 2.43, T 3.16
P2: G 3.38, C 1.87, E 4.11, H 2.17, W 1.95, T 3.05, V 2.29, A 1.84, I 1.98, L 1.68, M 3.04
K24: F 2.21, H 2.59, Y 2.49, V 2.49, Q 2.9, W 2.54, I 1.89, R 2.9, S 2.8, A 2.72, N 2.32, C 2.23, L 2.12, T 2.5
S15: R 2.41, N 2.67, D 2.89, C 2.25, P 2.42, Y 2.08, H 2.22, V 2.88, F 2.15, E 2.9, I 2.25, K 2.54, W 2.27, L 2.85
K4: C 1.78, A 1.81, P 2.45, R 1.61, E 4.95, Q 2.52, F 1.97, G 2.72, D 3.31, N 2.27
K23: M 2.25, P 2.33, W 2.38, H 2.63, E 2.81, I 2.66, D 3.12, Y 2.2, T 1.81, A 2.36, V 2.67, G 2.27, Q 2.81
F1: G 4.02, K 4.8, Y 2.53, V 4.13, S 4.52, T 4.37, R 3.98, C 4.01, N 4.88, W 3.51, I 3.56, E 5.41, M 3.97
D12: C 1.95, E 3.72, W 2.49, S 2.16, H 2.25, Y 1.89, F 1.97, I 1.72, Q 2.22, K 2.38, R 1.93
Q20: T 2.44, E 2.52, V 2.84, W 2.46, N 2.55, L 2.54, H 2.47, R 2.67, D 2.93, M 2.03, Y 2.47, F 2.49, C 2.09, G 2.32
A6: T 3.03, Q 3.18, G 2.45, L 1.83, H 2.91, M 2.3, C 2.29, Y 1.66, K 2.59, F 2.4, V 2.45, D 3.13
L13: C 2.83, H 2.93, N 3.13, I 2.62, S 2.56, F 2.5, P 2.61, M 2.3, Y 2.47, W 2.99, Q 3.21, D 2.54, A 3.2, R 2.79, V 2.55
Y9: K 3.08, E 3.04, H 3.1, T 2.5, V 2.2, S 2.73, D 3.15, R 3.09, M 2.48, G 3.27, N 3.67, P 2.9
E11: I 1.87, D 2.37, P 1.8, R 2.24, C 1.88, Y 1.98, L 2.35, F 1.97, H 1.86, Q 1.94, M 2.17, K 2.63, A 2.29
D18: R 2.03, H 2.38, V 2.45, W 2.17, S 2.92, G 2.38, P 2.47, F 2.04, E 2.65, C 1.9
H21: F 2.46, D 3.02, S 2.6, Q 2.66, P 2.41, M 2.69, C 2.28, Y 2.37, E 2.85, L 2.25, N 3.07, V 2.28, R 2.37, W 2.34, G 2.5

Variants of: B2
Assay: as above
Conditions: c terminus: a fixed tail appended

Protein stability index: each site, then its substitutions
A21: S 4.49, N 3.11, M 3.82, L 3
L24: K 4.06, D 3.9, T 5.26, F 2.33, I 2.33, Y 1.98, A 3.7, N 2.87, P 2.62
C23: D 3.23, I 3.12, Q 2.32, S 3.48, K 3.89, P 5.3, A 1.18, V 2.34, H 2.03
V22: R 4.03, C 3.03, T 3.08, I 4.34, H 2.82, A 3.06

Source: the supplement of paper PMC10567573
